Data as given in patent US20200317768A1 (published 2020).

T1: human FcγRIIaH extracellular domain, C-terminal His-tag (human, UniProt P12318 34-217)
T1 construct: Soluble extracellular domain expressed in FreeStyle 293 cells; also called FcgRIIaH; human FcγRIIa (type H); not shown: His-tag added to the C-terminus
T1 sequence: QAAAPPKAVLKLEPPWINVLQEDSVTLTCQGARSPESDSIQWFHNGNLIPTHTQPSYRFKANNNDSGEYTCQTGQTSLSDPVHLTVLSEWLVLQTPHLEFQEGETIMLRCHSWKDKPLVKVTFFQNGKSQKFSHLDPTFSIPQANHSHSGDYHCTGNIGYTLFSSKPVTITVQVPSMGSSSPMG

T2: human FcγRIIaR extracellular domain, C-terminal His-tag (human, UniProt P12318 34-217)
T2 construct: Soluble extracellular domain expressed in FreeStyle 293 cells; also called FcgRIIaR; human FcγRIIa (type R); not shown: His-tag added to the C-terminus
T2 chain: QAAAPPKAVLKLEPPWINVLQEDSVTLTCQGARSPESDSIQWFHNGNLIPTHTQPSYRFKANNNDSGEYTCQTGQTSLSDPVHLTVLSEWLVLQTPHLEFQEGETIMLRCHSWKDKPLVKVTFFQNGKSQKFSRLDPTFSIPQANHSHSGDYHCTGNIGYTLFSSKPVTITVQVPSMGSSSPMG

T3: human FcγRIIb extracellular domain, C-terminal His-tag (human, UniProt P31994 43-217)
T3 construct: Soluble extracellular domain expressed in FreeStyle 293 cells; also called FcgRIIb; not shown: His-tag added to the C-terminus
T3 sequence: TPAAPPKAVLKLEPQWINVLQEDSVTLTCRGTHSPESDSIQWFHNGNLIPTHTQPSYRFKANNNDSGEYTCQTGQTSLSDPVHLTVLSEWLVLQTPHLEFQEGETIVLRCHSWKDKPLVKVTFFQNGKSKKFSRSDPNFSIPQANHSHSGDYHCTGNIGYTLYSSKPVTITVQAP


How the values were obtained:
[1] = biological target: T1, human FcγRIIaH extracellular domain, …; experiment: SPR (BIACORE); KD of SG1 divided by KD of the variant
Procedure: (§1) The kinetic analysis of interactions between these antibodies and FcγR was carried out using BIACORE® T200 or BIACORE® 4000 (GE Healthcare). HBS-EP+ (GE Healthcare) was used as the running buffer, and the measurement temperature was set to 25° C. A chip produced by immobilizing Protein A. Protein A/G or mouse anti-human IgG kappa light chain (BD Biosciences) onto a Series S Sensor Chip CM4 or CM5 (GE Healthcare) by the amine-coupling method was used. […] After the measurement, the antibody captured on the chip was washed off by allowing reaction with 10 mM glycine-HCl, pH1.5 and 25 mM NaOH so that the chip was regenerated and used repeatedly. The sensorgrams obtained as measurement results were analyzed by the 1:1 Langmuir binding model using the BIACORE® Evaluation Software to calculate the binding rate constant ka (L/mol/s) and dissociation rate constant kd (l/s), and the dissociation constant KD (mol/L) was calculated from these values. […] Regarding such interactions, KD values were calculated using the following 1:1 binding model described in BIACORE® T100 Software Handbook BR1006-48 Edition AE.
(§2) Furthermore, the substitutions used in Example 29 for improving antibody half-life and reducing binding to rheumatoid factor were introduced into human FcγRIIb-enhanced Fc variants and their affinity against human FcγRs were analyzed (Table 29). In this SPR analysis, all the data were obtained using mouse anti-human IgG kappa light chain for capturing the antibodies of interest.

[2] = biological target: T2, human FcγRIIaR extracellular domain, …; experiment: as above
Procedure: as §1, §2

[3] = biological target: T3, human FcγRIIb extracellular domain, …; experiment: as above
Procedure: as §1, §2

[4] = biological target: T4, human FcγRIIIaV extracellular domain, C-terminal His-tag (human, UniProt P08637 17-208); experiment: as above
T4 construct: Soluble extracellular domain expressed in FreeStyle 293 cells; also called FcgRIIIaV; not shown: His-tag added to the C-terminus
Procedure: as §1, §2

[5] = biological target: T1, human FcγRIIaH extracellular domain, …; experiment: SPR (BIACORE), antibody captured by mouse anti-human IgG kappa light chain, FcgR extracellular domain as analyte, 25 C
Procedure: as §1, §2

[6] = biological target: T2, human FcγRIIaR extracellular domain, …; experiment: as above
Procedure: as §1, §2

[7] = biological target: T3, human FcγRIIb extracellular domain, …; experiment: as above
Procedure: as §1, §2

[8] = biological target: T4, human FcγRIIIaV extracellular domain, …; experiment: as above
Procedure: as §1, §2

T4 sequence (P08637 17-208 F176V): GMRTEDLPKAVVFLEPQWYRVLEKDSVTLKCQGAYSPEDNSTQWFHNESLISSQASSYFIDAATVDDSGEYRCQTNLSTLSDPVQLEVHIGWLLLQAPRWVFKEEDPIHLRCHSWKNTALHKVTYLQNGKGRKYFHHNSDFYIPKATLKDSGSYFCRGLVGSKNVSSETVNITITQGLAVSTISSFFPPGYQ

KD fold for humanFcgRs (SG1 = 1) [1] [fold]	KD fold for humanFcgRs (SG1 = 1) [2] [fold]	KD fold for humanFcgRs (SG1 = 1) [3] [fold]	KD fold for humanFcgRs (SG1 = 1) [4] [fold]	Kd [5] [µM]	Kd [6] [µM]	Kd [7] [µM]	Kd [8] [µM]	Binder
0.033	0.05	15.7	0.002	29	25	0.3	360	MS103240H795-TT90/M103202L1045-SK1 (antibody) heavy: QVQLVESGGGLVQPGGSLRLSCAVSGIDLSHDDISWVRQAPGKGLEWVSIISYAGSTYYASWAKGRLTISKDTSKNQVVLTMTNMDPVDTATYYCARGVPAYSHGGDLWGQGTLVTVSSASTKGPSVFPLAPSSKSTSGGTAALGCLVKDYFPEPVTVSWNSGALTSGVHTFPAVLQSSGLYSLSSVVTVPSSSLGTQTYICNVNHKPSNTKVDKKVEPKSCDKTHTCPPCPAPEYLGGDSVFLFPPKPKDVLMISRTPEVTCVVIDVSHEDPEVKFNWYVDGVEVHNAKTKPREEQYNSTYRVVSVLPVLHRDWLNGKEYKCKVSNKALPKPIEKTISKAKGQRREPQVYTLPPSREEMTKNQVSLTCLVKGFYPSDIAVEWESNGQPENNYKTTPPVLDSDGSFFLYSKLTVDKSRWQQGNVFSCSVMHEALHAHYTRKELSLSP light: DIVMTQSPATLSLSPGERATLSCTTSQSVYHENWLSWFQQKPGQPPKLLIYWASTLAYGVPSRFSGSGSGTDFTLTISSLQPEDAATYYCAGGYGGGRYAFGQGTKVEIKRTVAAPSVFIFPPSDEQLKSGTASVVCLLNNFYPREAKVQWKVDNALQSGNSQESVTEQDSKDSTYSLSSTLTLSKADYEKHKVYACEVTHQGLSSPVTKSFNRGEC
0.019	0.05	15.2	0.002	52	24	0.31	470	MS103240H795-TT93/M103202L1045-SK1 (antibody, copies: 2 + 2) heavy: QVQLVESGGGLVQPGGSLRLSCAVSGIDLSHDDISWVRQAPGKGLEWVSIISYAGSTYYASWAKGRLTISKDTSKNQVVLTMTNMDPVDTATYYCARGVPAYSHGGDLWGQGTLVTVSSASTKGPSVFPLAPSSKSTSGGTAALGCLVKDYFPEPVTVSWNSGALTSGVHTFPAVLQSSGLYSLSSVVTVPSSSLGTQTYICNVNHKPSNTKVDKKVEPKSCDKTHTCPPCPAPEYLGGDSVFLFPPKPKDVLMISRTPEVTCVVIDVSHEDPEVKFNWYVDGVEVHNAKTKPREEQYNSTYRVVSVLPVLHRDWLNGKEYKCKVSNKALPKPIEKTISKAKGQPREPQVYTLPPSREEMTKNQVSLTCLVKGFYPSDIAVEWESNGQPENNYKTTPPVLDSDGSFFLYSKLTVKKSRWQQGNVFSCSVLHEALHAHTTRKELSLSP light: DIVMTQSPATLSLSPGERATLSCTTSQSVYHENWLSWFQQKPGQPPKLLIYWASTLAYGVPSRFSGSGSGTDFTLTISSLQPEDAATYYCAGGYGGGRYAFGQGTKVEIKRTVAAPSVFIFPPSDEQLKSGTASVVCLLNNFYPREAKVQWKVDNALQSGNSQESVTEQDSKDSTYSLSSTLTLSKADYEKHKVYACEVTHQGLSSPVTKSFNRGEC
0.021	0.04	14.7	0.002	46	30	0.32	450	MS103240H795-TT91/M103202L1045-SK1 (antibody) heavy: QVQLVESGGGLVQPGGSLRLSCAVSGIDLSHDDISWVRQAPGKGLEWVSIISYAGSTYYASWAKGRLTISKDTSKNQVVLTMTNMDPVDTATYYCARGVPAYSHGGDLWGQGTLVTVSSASTKGPSVFPLAPSSKSTSGGTAALGCLVKDYFPEPVTVSWNSGALTSGVHTFPAVLQSSGLYSLSSVVTVPSSSLGTQTYICNVNHKPSNTKVDKKVEPKSCDKTHTCPPCPAPEYLGGDSVFLFPPKPKDVLMISRTPEVTCVVIDVSHEDPEVKFNWYVDGVEVHNAKTKPREEQYNSTYRVVSVLPVLHRDWLNGKEYKCKVSNKALPKPIEKTISKAKGQRREPQVYTLPPSREEMTKNQVSLTCLVKGFYPSDIAVEWESNGQPENNYKTTPPVLDSDGSFFLYSKLTVDKSRWQQGNVFSCSVLHEALHAHTTRKELSLSP light: DIVMTQSPATLSLSPGERATLSCTTSQSVYHENWLSWFQQKPGQPPKLLIYWASTLAYGVPSRFSGSGSGTDFTLTISSLQPEDAATYYCAGGYGGGRYAFGQGTKVEIKRTVAAPSVFIFPPSDEQLKSGTASVVCLLNNFYPREAKVQWKVDNALQSGNSQESVTEQDSKDSTYSLSSTLTLSKADYEKHKVYACEVTHQGLSSPVTKSFNRGEC
0.024	0.06	16.8	0.001	40	20	0.28	490	MS103240H795-TT92/M103202L1045-SK1 (antibody, copies: 2 + 2) heavy: QVQLVESGGGLVQPGGSLRLSCAVSGIDLSHDDISWVRQAPGKGLEWVSIISYAGSTYYASWAKGRLTISKDTSKNQVVLTMTNMDPVDTATYYCARGVPAYSHGGDLWGQGTLVTVSSASTKGPSVFPLAPSSKSTSGGTAALGCLVKDYFPEPVTVSWNSGALTSGVHTFPAVLQSSGLYSLSSVVTVPSSSLGTQTYICNVNHKPSNTKVDKKVEPKSCDKTHTCPPCPAPEYLGGDSVFLFPPKPKDVLMISRTPEVTCVVIDVSHEDPEVKFNWYVDGVEVHNAKTKPREEQYNSTYRVVSVLPVLHRDWLNGKEYKCKVSNKALPKPIEKTISKAKGQPREPQVYTLPPSREEMTKNQVSLTCLVKGFYPSDIAVEWESNGQPENNYKTTPPVLDSDGSFFLYSKLTVKKSRWQQGNVFSCSVMHEALHAHYTRKELSLSP light: DIVMTQSPATLSLSPGERATLSCTTSQSVYHENWLSWFQQKPGQPPKLLIYWASTLAYGVPSRFSGSGSGTDFTLTISSLQPEDAATYYCAGGYGGGRYAFGQGTKVEIKRTVAAPSVFIFPPSDEQLKSGTASVVCLLNNFYPREAKVQWKVDNALQSGNSQESVTEQDSKDSTYSLSSTLTLSKADYEKHKVYACEVTHQGLSSPVTKSFNRGEC
